Reference: the supplement of paper PMC10567573

B1: ZNF263 (parent)
chain: PEASHLRFRRFRFQEAAGPREALS
B2: LOXL2 (parent)
chain: FSPDGPSRFRKAYKPEQPLVRLRG

Variants of: B1
Assay: protein stability index of a GFP-peptide fusion (GPS, HEK-293T) (PSI 1-6); higher = more stable
Conditions: c terminus: a fixed tail appended
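Also: lentivirally expressed fusions sorted by FACS into six bins by GFP to DsRed ratio, PSI derived from sequencing read proportions per bin multiplied by bin number.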

Protein stability index: each site, then its substitutions
R9: L 2.8; M 2.78; N 3.08; Q 3.44; S 3.8; T 3.32; V 2.21; W 1.62; Y 1.96
R10: A 2.18; C 2.28; D 3.29; E 2.68; F 1.79; G 2.62; H 2.27; I 1.86; K 2.65; L 2.49; M 3.12; N 2.35; P 2.11; Q 3.07; S 2.72; T 2.93; V 1.26; W 3.23; Y 1.91
F11: A 3.25; C 2.45; D 3.66; G 3.89; H 4.01; I 3.1; K 3.85; L 2.66; M 3.61; N 4.33; P 4.66; Q 4.13; R 4.91; S 3.53; T 4.16; W 2.67; Y 2.76
R12: A 3.32; C 1.81; D 3.93; E 5.03; F 2.19; G 3.28; H 3.14; I 2.33; K 3.64; L 2.99; M 3.46; N 3.77; P 3.39; Q 4.36; S 4.05; T 3.59; V 3.61; W 2.56; Y 2.4
F13: A 3.97; C 2.75; D 4.81; E 3.86; G 4.17; I 3.28; K 4.07; L 2.65; M 3.59; N 3.8; P 3.9; Q 4.18; R 3.56; S 4.01; T 4.15; V 3.61; W 3.58; Y 2.3
Q14: A 1.81; C 1.89; D 4.9; E 3.23; G 3.68; H 1.16; I 1.78; K 3.34; L 3.22; M 2.93; N 3; P 3.29; R 2.59; S 2.87; T 2.88; V 2.5; W 2.87; Y 2.26
E15: A 2.73; C 2.31; D 2.09; F 1.53; G 2.24; H 2.04; I 1.78; K 2.04; L 2.02; M 2.38; N 2.68; P 2.32; R 1.98; S 2.54; T 2.74; V 2.12; W 2.15; Y 2.05
A16: C 2.19; D 2.99; E 2.36; F 1.59; G 2.43; H 3; I 2.85; K 2.61; L 2.57; M 2.15; N 2.69; P 3.25; R 2.88; S 3.54; T 2.11; V 2.31; W 2.65; Y 2.1
A17: C 2.14; D 3.42; E 3.34; F 1.88; G 2.58; H 2.33; I 2.15; K 2.94; L 2.21; M 2.1; N 2.78; P 2.55; Q 2.75; R 2.15; S 2.54; T 2.61; V 2.55; W 2.69; Y 2.04
G18: A 2.27; C 2.67; D 2.64; E 3.44; F 2.26; H 2.98; I 2.35; K 2.84; L 2.21; M 2.7; N 2.83; P 3.36; Q 2.81; R 2.65; S 2.96; T 2.97; V 2.38; W 1.88; Y 2.14
P19: A 2.71; C 2.21; D 2.8; E 3.39; F 1.76; G 3.11; H 2.73; I 2.04; K 2.73; L 1.95; M 2.8; N 2.63; Q 3.18; R 2.71; S 2.87; T 3.26; V 2.21; W 2.04; Y 1.69
R20: A 3.17; C 2.21; D 2.9; E 3.35; F 1.62; G 2.25; H 2.4; I 2.48; K 2.38; L 2.29; M 2.21; N 2.99; P 2.24; Q 2.7; S 2.58; T 2.65; V 2.65; W 1.49; Y 1.49
E21: A 2.56; C 2.14; D 2.54; F 2.34; G 2.4; H 2.84; I 2.04; K 2.45; L 2.41; M 2.98; N 2.71; P 2.89; Q 3.03; R 2.87; S 2.74; T 2.66; V 1.85; W 2.01; Y 2.58
A22: C 2.65; D 3.38; E 3.15; F 2.6; G 2.98; H 2.57; I 2.28; K 2.77; L 2.51; M 2.37; N 2.87; P 3.7; Q 2.78; R 2.8; S 2.77; T 2.74; V 2.15; W 2.03; Y 2.29
L23: A 3.44; C 2.7; D 3.75; E 3.5; F 2.58; G 3.04; H 3.05; I 2.48; K 3.35; M 2.45; N 3.15; P 2.9; Q 2.97; R 3.11; S 3.28; T 2.84; V 2.93; W 1.91; Y 1.71
S24: A 2.28; C 2.42; D 3.06; E 2.79; F 2.07; G 2.3; H 2.68; I 2.52; K 2.76; L 2.65; M 2.19; N 3.28; P 2.57; Q 2.49; R 2.69; T 2.22; V 2.2; W 2.37; Y 2.37

Variants of: B2
Assay: as above
Conditions: c terminus: a fixed tail appended

Protein stability index of substitutions, site by site:
F1: A 2.9; C 3.23; D 3.9; E 3.56; G 3.2; H 3.79; I 2.95; K 3.11; L 4.19; M 2.95; N 3.98; P 4.03; Q 3.85; R 4.12; S 3.92; T 3.33; V 3.65; W 3.12; Y 1.83
S2: D 3.05; E 3.62; F 2.48; G 2.11; H 2.68; K 3.23; L 1.92; M 2.37; N 2.01; P 1.97; Q 1.22; R 2.96; T 3.36; V 2.07; W 1.84; Y 2.36
P3: A 1.79; C 1.97; D 2; E 1.97; F 2.41; H 1.9; I 2.26; K 1.71; L 1.96; M 2.33; N 1.73
